Several values for one entry are separate records, joined by “and”; a condition that tells them apart may be missing. Equal entries are not always repeated.
Columns and labels:
[1] = molecular target: YSD1_16, auxiliary protein of phage YSD1 (in the virion) (phage YSD1); test: cryo-EM structure; single-particle icosahedral reconstruction of the head of purified YSD1 virions (assembled in infected bacteria), 3.8 Å
[2] = molecular target: YSD1_17, major capsid protein of phage YSD1 (in the virion) (phage YSD1); test: as above
[3] = molecular target: YSD1_22 delta-HP (residues 45-69 removed and replaced with a glycine) with C-terminal hexa-histidine tag (phage YSD1); test: SEC-MALS; in-line refractive index and multi-angle laser light scattering (DAWN HELEOS-II, Optilab T-rEX), 25 mM Tris pH 8.0, 200 mM NaCl
[4] = molecular target: YSD1_22, tail-tube protein of phage YSD1 (in the virion tail) (phage YSD1); test: cryo-EM structure; helical reconstruction (C6 symmetry) of the tail tube of purified YSD1 virions (assembled in infected bacteria), 3.5 Å

Substance: YSD1_16, auxiliary protein of phage YSD1 (in the virion) (natural protein)
- stoichiometry N [1]: 3

Substance: YSD1_17, major capsid protein of phage YSD1 (in the virion) (natural protein)
- stoichiometry N [2]: 5 and 6

Substance: YSD1_22 delta-HP (residues 45-69 removed and replaced with a glycine) with C-terminal hexa-histidine tag (natural protein)
- stoichiometry N [3]: 6

Substance: YSD1_22, tail-tube protein of phage YSD1 (in the virion tail) (natural protein)
- stoichiometry N [4]: 6
